Experimental findings from the RNAGym collection of RNA variant scans (doi:10.1093/nar/gkz1192) are described below.

B1: CPEB3 Ribozyme (parent)
chain: UAACAGGGGGCCACAGCAGAAGCGUUCACGUCGCAGCCCCUGUCAGAUUCUGGUGAAUCUGCGAAUUCUGCUGUAUAUCUC

The variants in this data set derive from B1. Put plainly: self-cleavage, relative activity (ratio to wild type); higher = more cleavage; in vitro, sequencing. The gist of the method: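 After error-prone PCR and barcoding, CPEB3 ribozyme mutant libraries were transcribed with T7 RNA polymerase at 37°C for 5 hours, then given 15 min with DNase I before an EDTA stop, and they cleaved during both steps. Reverse transcription with template switching preceded Illumina sequencing. Relative activity divides a variant's cleaved/total read fraction by the unmutated ribozyme's. At least 5 reads were required per variant, and three batches were averaged.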
C39G A45G: the self-cleavage came to 0.29.

Turning to A5U A57U, the self-cleavage stood at 0.67.

For G36C U43C, the self-cleavage is 0.28.

With A20G C37G, the self-cleavage stood at 0.78.

As for A20G C37A, the self-cleavage stood at 0.41.

With A56U G73A, the self-cleavage amounted to 1.18.

As to C39U U67C, the self-cleavage was 0.21.

As to C12A A28C, the self-cleavage amounted to 0.57.

As for C12A A28U, the self-cleavage stood at 0.92.

A35G C40G: the self-cleavage stood at 0.66.

For A35G C40A, the self-cleavage turned out to be 0.55.

Turning to G7A U58C, the self-cleavage turned out to be 0.13.

In the case of C27U A45C, the self-cleavage amounted to 0.19.

As to C68A U69G, the self-cleavage was determined as 0.42.

Consider C11G A21C, for which the self-cleavage stood at 0.08.

Regarding U41A U54G, the self-cleavage was 0.22.

For G24A U31C, the self-cleavage was 0.15.

With U51C G63A, the self-cleavage came out at 0.61.

Regarding G19U G36C, the self-cleavage stood at 0.19.

Take A35U C44A: the self-cleavage is 0.16.

For the variant C17G U72C, the self-cleavage is 0.31.

In the case of A3G U51C, the self-cleavage was 0.94.

On to C68G U74A, for which the self-cleavage stood at 0.43.

As to A45G A65G, the self-cleavage is 0.35.

Regarding A45G A65C, the self-cleavage came out at 0.24.

As for A3U C68A, the self-cleavage is 0.44.

Turning to U58A, the self-cleavage was determined as 0.41.

For the variant U60C U76G, the self-cleavage came to 0.51.

With A20U U54C, the self-cleavage was found to be 0.31.

As to A28G U48A, the self-cleavage amounted to 0.26.

U58C U80C: the self-cleavage is 0.57.

With A21U U41C, the self-cleavage came to 0.34.

Regarding A3G A77U, the self-cleavage is 0.99.

For C62G U69C, the self-cleavage stood at 0.22.

Turning to G16A U25A, the self-cleavage was found to be 0.36.

Regarding C32U A45G, the self-cleavage was 0.15.

Consider U41A A45G, for which the self-cleavage was found to be 0.24.

A13C A18U: the self-cleavage was 0.25.

Take C40A A45C: the self-cleavage turned out to be 0.23.

In the case of A18U U67G, the self-cleavage was determined as 0.19.

With G42A C81U, the self-cleavage stood at 0.4.

For U54A C62U, the self-cleavage amounted to 0.25.

For C38G U80C, the self-cleavage is 0.56.

On to G30U A57G, for which the self-cleavage was found to be 0.13.

In the case of A21G G36U, the self-cleavage was determined as 0.07.

As to C11G U58A, the self-cleavage was determined as 0.39.

In the case of A3U U80C, the self-cleavage amounted to 0.85.

Consider G7C U54C, for which the self-cleavage was found to be 0.34.

C11G U25A: the self-cleavage was 0.1.

With A5U G22A, the self-cleavage was found to be 0.28.

Regarding G8A A45G, the self-cleavage amounted to 0.29.

Consider A56G A65G, for which the self-cleavage was 0.32.

Turning to G30A, the self-cleavage was 0.29.

With U74C A75U, the self-cleavage is 1.26.

Turning to A45U U66A, the self-cleavage worked out at 0.31.

With A47G C68U, the self-cleavage turned out to be 0.89.

Consider U25A A65C, for which the self-cleavage stood at 0.08.

With G19U U25C, the self-cleavage amounted to 0.08.

As for U41C G70U, the self-cleavage was 0.5.

For G7A U80A, the self-cleavage came to 0.25.

For the variant U31C C79U, the self-cleavage worked out at 1.1.

Take A21G U26C: the self-cleavage came out at 0.29.

On to A13G C68U, for which the self-cleavage was 0.66.

For the variant U48C A65G, the self-cleavage was determined as 0.27.

Turning to A5G A13C, the self-cleavage worked out at 0.76.

Consider U31C A75G, for which the self-cleavage was determined as 0.77.

As for A35U A56C, the self-cleavage stood at 0.23.

As for A3G U54C, the self-cleavage turned out to be 0.98.

As for A57G G61U, the self-cleavage worked out at 0.64.

On to C14U U78C, for which the self-cleavage is 1.22.

Regarding G61U U67G, the self-cleavage worked out at 0.23.

In the case of C50U A77G, the self-cleavage turned out to be 1.11.

C4G A57G: the self-cleavage was 0.98.

In the case of A65G U72C, the self-cleavage is 0.52.

Consider A2G G53A, for which the self-cleavage was determined as 0.66.

As for U1C G30C, the self-cleavage turned out to be 0.14.

Take A35U A75G: the self-cleavage came to 0.58.

As for U31A A45U, the self-cleavage is 0.32.

Take U31A A45G: the self-cleavage is 0.35.

Turning to G6U U60A, the self-cleavage worked out at 0.49.

For A13C C14G, the self-cleavage is 0.56.

As for C12A A20U, the self-cleavage worked out at 0.32.

For the variant C4A U69A, the self-cleavage was determined as 0.68.

A2C U31C: the self-cleavage was 0.63.

On to U41C U80G, for which the self-cleavage was 1.29.

Take U49A U78C: the self-cleavage was 0.57.

As to G46U U72C, the self-cleavage was found to be 0.22.

As to G24C G30C, the self-cleavage was 0.11.

As to G22A U26A, the self-cleavage worked out at 0.38.

On to G8U, for which the self-cleavage stood at 0.23.

As for C44A U54A, the self-cleavage stood at 0.59.

As to A13G U67C, the self-cleavage amounted to 0.25.

As for C29G A56G, the self-cleavage came out at 0.23.

As to U43C G53U, the self-cleavage amounted to 0.6.

As to G7C U43C, the self-cleavage is 0.36.

On to U1A G10C, for which the self-cleavage came out at 0.36.

A18U G61A: the self-cleavage came out at 0.3.

U1A U80C: the self-cleavage stood at 1.14.

As for G7U G33A, the self-cleavage worked out at 0.11.

As for G10U C62U, the self-cleavage was determined as 0.13.

As to G7C A45G, the self-cleavage turned out to be 0.26.

For the variant C40A C50U, the self-cleavage is 0.22.

Regarding U51C U58A, the self-cleavage stood at 0.25.

Turning to G55U A65G, the self-cleavage worked out at 0.24.

In the case of U26C U48C, the self-cleavage stood at 0.33.

For C12G A20G, the self-cleavage worked out at 0.44.

As for U48A U49C, the self-cleavage came to 0.3.

As to G52C A65U, the self-cleavage was found to be 0.32.

Take C39U C62A: the self-cleavage was 0.35.

With A15G G70U, the self-cleavage amounted to 0.18.

Consider C40U C68G, for which the self-cleavage was found to be 0.28.

As for U43C A75G, the self-cleavage came to 0.39.

With G53A U58G, the self-cleavage was 0.24.

On to A13U G36A, for which the self-cleavage is 0.33.

In the case of A56G A57U, the self-cleavage came to 0.37.

Regarding A28G A77C, the self-cleavage amounted to 0.58.

In the case of A21G U49A, the self-cleavage is 0.48.

As for A45C U66C, the self-cleavage came to 0.31.

For the variant U51A A75U, the self-cleavage is 1.03.

For G9A G30A, the self-cleavage stood at 0.18.

For A18G A57U, the self-cleavage was determined as 0.36.

Take C44U G55A: the self-cleavage came out at 0.07.

For U43C C81U, the self-cleavage is 0.7.

As to U43C C81A, the self-cleavage was 0.92.

For G30U U51A, the self-cleavage worked out at 0.11.

Consider G30U U51C, for which the self-cleavage was determined as 0.16.

Consider U25A U60C, for which the self-cleavage is 0.21.

U25A G70U: the self-cleavage was 0.06.

Consider G6A U31C, for which the self-cleavage was found to be 0.34.

In the case of G42U U66C, the self-cleavage came out at 0.48.

G30A A56U: the self-cleavage was found to be 0.37.

As for U25A A28U, the self-cleavage is 0.52.

For the variant A3G A15U, the self-cleavage is 0.78.

Consider U26C G33A, for which the self-cleavage amounted to 0.24.

As to G16A U74A, the self-cleavage turned out to be 1.21.

Consider U26G U49G, for which the self-cleavage came out at 0.05.

With A3U U58A, the self-cleavage worked out at 0.39.

Take U1A U76C: the self-cleavage was determined as 1.04.

In the case of U58C U60C, the self-cleavage came out at 0.3.

C12A A21G: the self-cleavage came to 0.73.

In the case of G52U G63U, the self-cleavage is 1.2.

C29A U60C: the self-cleavage worked out at 0.2.

Regarding U1C U31A, the self-cleavage was 0.43.

Regarding U1C A18U, the self-cleavage was 0.36.

For A13C U26C, the self-cleavage was 0.51.

On to C11U C62U, for which the self-cleavage was 0.11.

For the variant A21G U54C, the self-cleavage amounted to 0.53.

With A15U U25A, the self-cleavage was found to be 0.2.

Regarding C23U A65G, the self-cleavage came out at 0.43.

With C11U U49A, the self-cleavage was found to be 0.32.

As for U48G U60G, the self-cleavage was 0.22.

Consider C37U C50A, for which the self-cleavage amounted to 0.47.

Consider A3C A75G, for which the self-cleavage was found to be 1.14.

As to A18U G63U, the self-cleavage was determined as 0.57.

With U26C U31G, the self-cleavage came to 0.32.

On to G8C G33A, for which the self-cleavage was 0.06.

G30U U80C: the self-cleavage came out at 0.17.

Turning to G53C A64G, the self-cleavage worked out at 1.05.

For the variant G9A U54C, the self-cleavage is 0.33.

In the case of C17U A65U, the self-cleavage is 0.55.

Turning to U60C G61C, the self-cleavage stood at 0.29.

Take G46U U69A: the self-cleavage worked out at 0.22.

For the variant A5G U58A, the self-cleavage was 0.24.

Consider A3U G36A, for which the self-cleavage is 0.32.

On to A15U U31G, for which the self-cleavage was 0.39.

Take A21C U67C: the self-cleavage amounted to 0.1.

Turning to U43A G52U, the self-cleavage was 1.26.
